Source: the nanobody polyreactivity screen of Harvey et al. (2022)

Test: yeast display, Sf9 membrane polyspecificity reagent, FACS + sequencing; frameworks hold sequencing errors
Outline: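 Synthetic nanobody libraries on Saccharomyces cerevisiae BJ5465 were galactose-induced for 36–48 hours, stained 1 hour at 4 °C with 10% biotinylated, detergent-solubilized Sf9 membrane reagent and enriched on streptavidin microbeads. FACS then separated cells into low and high (top ~1%) gates by anti-HA (expression) and streptavidin (reagent binding) fluorescence. Genes were colony-PCR amplified, MiSeq 2 × 250 sequenced and CDR-length filtered. A clone's polyreactivity label is that of its gate of origin.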

Sequence	polyreactivity (PSR sort gate)
QVQLEESGGGLVQAGGSLRLSCAASGTFVTYMGWYRQAPGKERELVAAIRNGGSTNYADSVKGRFTISRDNAKNTVYLQMNSLKPEDTAVYYCAARVTYSRGYRGGSRTKYDYWGQGTQVTVSS	low polyreactivity
QFQLVESGGGLVQAGGSLRLSCAASGSTFTPNVMGWYRQAPGKERELVAAINSSGGSTFYADSVKGRFTISRDNAKNTVYLQMNSLNPEDTAVYYCAASWHTPTVYDEYYYWGQGTQVTVSS	low polyreactivity
QVQLVESGGGLVQAGGSLRLSCAASGITLNGYVMRWYRQAPGKEREFVAVISSRGGSTYYADSVKGRFTISRDNAKNTVYLQMNSLKPEDTAVYYCAARYVREYNYWGQGTQVTVSS	high polyreactivity
QVQLVESGGGLVQAGGSLRLSCAASGGIFGAYAMGWYRQAPGKERELVAASDLTDGDTYYADSVKGRFTSSRDNAKNTVYLQMNSLKPEATAVYYCAAEALYWVVDALDYEGDYWGQGTQVTVSS	high polyreactivity
QVQLVESGGGLVQAGGSLRLSCAASGRTFRYYVMGWYRQAPGKERELVAGISGSGGNTYYADSVKGRFTISRDNAKNTVYLQMNSLKPEDTAVYYCAARQRGSVGVPYNSWGQGTQVTVSW	high polyreactivity
QVQLQESGGGLVQAGGSLRLSCAASGYIFPRIDMGWYRQAPGKEREFDAGISYDAITNYADSVKGRFTISLDNAKNTVYLQMNSLKPEDTAVYYCAVSYYGTPLFTYWGQGTQVTVSS	high polyreactivity
QVQLVESGGGLVQAGGSLRLSCAASGYIFFFNAMAWYRQAPGKERELVAAITRRGVSTYYADSVKGRFTISRDNAKNTVYLQMNSLKPEDTAVYYCATEHNHLGYYYWGQGTQVTVSS	low polyreactivity
QVQLVESGGGIVQAGGSLRLSCAASGRIFDGYAMGWYRQAPGKESQLVAAISATGGSTYYADSVKGRFTISRDNAKNTVYLQMNSLKPEDTAVYYCATDYVRGLYRYKLSRYEYWGQGTQETVSS	low polyreactivity
QVQLVESGGGLVQAGGSLRLSCAASGLIFRVYAMGWYRQAPGKERELVAAITWSDGSTYYADSVKGRFTISRDNAKNTVYLQMNSLKPEDTAVYYCATAYFRVYHSRYYYWGQGTQVTVSS	high polyreactivity
QVQLVESGGGLVQAGGSLRLSCAASGYIFTDKVMGWYIQAPGKERELVAAITYSAASTYYADSVKGRFTISRDNAKNTVYLQMNSLKPEDTAVYYCATEYYIGVNYRGDYWGQGTQVTVSS	low polyreactivity
QVQLVESGGGLVQSGGSLRLSCAASGRTYDSYAMGWYRPAPGKERELVAVISRSGRTYYADSVKGRFTISRDNAKNTVYLQMNSLKPEDTAVYYCAAKWFRTWSGYWGQGSQVTVSS	high polyreactivity
QVQIVESGGGLDQAGGSLRLSCADSGSILYYYAMGCYRQAPGKETELVATITDSGDSTYYADSVKGRFTISRDNAKNTVYLQMNSLKPEDTAVYYCAAEGRYFYFTVKMDYWGQGTQVTVSS	low polyreactivity
QVQLVESGGGLVQAGGSLRLSCDASGSIFGKYTMGWYRQAPGKVRELVAAISKRGGSTRYADSVKGRFTISRDNAKNTVYLQMNSLKPEDTAVYYCAAYRYWMYRYQIVNYGYWGQGTQVTVSS	high polyreactivity
QVQLVESGGGLVQAGGSLRLSCAASGITFSVYAMGWYRQAPRKERELVASISSGGTSTYYADSVKGRFTISRDNAKNTVYLQMNSLKPEDTPVYYCAAYSYYTRDPYSYDYWGQGTQVTVSS	low polyreactivity
QVQLVESGGGLVQAGGSLRLSCAASGIILDEYAMGVYSQAPGKERELVAAITWIGGSTYADSVKGRFTISRDNAKNTVYLQMNRLKPEDTAVYYCAADYPSLFVCYGYGWYNYDYWGQGTQVTVSS	low polyreactivity
QVQLVESGGGLVQAGGSLRLSCAASGYIFYEYAMGWYRQAPGKERELVAAISRRGGRTYYADSVKGRFTISRDNAKNTVYLQMKSLKPEDTAVYYCATRVIYGHSVGYWGQCTQVTVSS	high polyreactivity
QVQLVESGGGLVQAGGSLRLSCAASGGILVGYAMGRYRQAPGKERELVAANNYSGGSTNYADSVKGRFTISRDNAKYSVYLQMNSLKPEDTAVYFCAARSTARYGYWGQGTQVTVSS	low polyreactivity
QVQLVESGGGLVQAGGSLRLTCAASGLTFRSYTMRWYRQAPGTERELVAAITFRGGSTYYADSLKGRFTISRDNAKNTVYLQMNSLKPEDTAVYYSAAVAIRRSVPVPRFDYWGQGTQVTVSS	high polyreactivity
QVQLVESGGGLVQAGGSLRISCAASGRIFYYNAMGWYRQAPGKERELVAAITSGGSTNYADSVKGRFTISRDNAKNTVYLQMNSLKPEDTAVYYCAADYYYYVAGVHYDYWGQGTQVTVSS	low polyreactivity
QVQLVESGGCLVQAGGSHRLSCAASGSIFKYYTMGWYRQAPGKERELDAAITTRGTSTNYADSVKGRFTISRDNAKHTVYFQMNSLKPEDTAVYYCAARLSSLISMNYWGQGTQVTVSS	high polyreactivity
QVQLVESGGGLVQAGGSLRLSCAASGSIRSYAMGWYRQAPGKERELVAAITRSGGSTYYADSVKGRFTISRDNAMNTVYLQMNSLKPEDTAVYYCAARYTYSYPLFGSWGQGTQVTVSS	high polyreactivity
QVQLVESGGGLVQAGGSLRLSCAASGSIFYPYAMGWYRQAPGKERELVAAISYSGGSTYYADSVKGSFTISRDNAKNTVYLQMNSMKPEDTAVYYCNRRYWRRPYYKYDYWGQGTQVTVSS	high polyreactivity

Sequence	polyreactivity (PSR sort gate)
QVQLVESGGGLVQAGGILRLSCAASGSTFYSYAMGWYRQAPGKERELVAYIDWSGGYTYYADSVKGRFTISRDNAKNTVYLQMNSLKPEDTAVYYCNAERGATGYYVTGDDYWGQGTQVTVSS	low polyreactivity
QDQLVESGGGLVQAGGSLRLSCAASGSTFEYYAMGWYRQAPGKERELVAAITRRGGSTYYADSVKGRFTISRDNAKNTVYLQMNSLKPEDTAVYYCAAVPTQKSQRTHDYCGQGTQVTVSS	low polyreactivity
QVQIVESGGGLVQAGGSLRLSCDASGSIFNYNAMGWYRQAPGKEREFVAAINQGGTSTYYADSVKGRFTISRDNAKNTVYLQINSLKPEDTAVYYCAALITVYRGSYEYWGQGTQVTVSS	low polyreactivity
QVQLVESGGGLVQAGGSLRLSCAASGRIFRSYAMGWYRQAPGKERELVAAISQRGGSTYYADSVKGRFTISRDNAKNTVYLQMNSLKPEDTAVYYCNKERRNSGKFDYWGQGTQVTVSS	high polyreactivity
QVQLVESGGGLVQAGGSLRLSCAASVLTFSYYALGGSRPAHGTERELVAAITSSGGRTTYADSVKGRFTISRDNAKNTVYLQMNSLKPEDTAVYYCNVVRCTLKYGYWGQGTQVTVSS	high polyreactivity
QVQLVESGGGLVQAGGSLRLSCAASGSIFEEYAMGWYRQAPGKERELVARIDESGGSTYYADSVKGRFTISRDNAKNTVYLQMNSLKPEDTAVYYCAAERYSDSWGFYSVDEGSWEMDYWGQGTQVTVSS	low polyreactivity
QFQLVESVGGLVQAGGSLRLSCAASGTTIPSYAMGWYRQAPGKERELVASITYSDGTTRYADSVKGRFTISRDNAKNTVYLQMNSLKPEDTAVYYCNAVYYREGMDYWGQGTQVTVSS	low polyreactivity
QVQLVESGGGLVQAGGSLRLSCAASGRIFRGYAMAWYRQAPGKERELVAAISGRGGRTNYADSVKGRFTISRDNAKNTVYLQMNSLKPEDTAVYYCATVPYTASRYEYWGQGTQVTVSS	high polyreactivity
QVQLVESGGGLVQAGGSLRLSCAASGRIFRTNAMGWYRQAPGKERELVASINSDGSTNYADSVKGRFTISRDNAKNTVYLQMNSLKPDDTAVYYCAAGYFWGRIKYYYWGQCTQVTVSS	high polyreactivity
QVQLVESGGGLVQAAGSLRLSCAASGRTFFPYAMGWYRQAPGKEREFVAAITKTDDSTYYADSVKGRFTISRDNAKNTVYLQMNSLKPEDSAVYYCNAGDTQIRFYYWGQVTQVTVSS	low polyreactivity
QVQLVESGGGLVQAGGSLRLSCAASGSTLDRYVMGWYRQAPGKERELVAAISRNGGSTYYADSVKGRFTISRDNAKNTVYLQMNSLKPEDTAVYYCARYAGFPYTQGDYWGQGTQVTVSS	high polyreactivity
QVQLVESGGGLVQAGGSLRLSCAASGSIFIYNAMGWYRQAPGKERELVAAISSSGGSTYYADSVKGRFTISRDNAKNTVYLQMNSLKPVDTAVYYCAARTYYVRGLGGRPGMDYWGQGTQVTVSS	low polyreactivity
QVPLVDSGGGLVQAGGSVRLSCAASGSIFYVYALGWYRQAPGTERELVAAINPSGGSTYADSVKGRFTISRDNAKISVYLQMYSLKTEDNAVSYCAAEPEWWWRGYGYWGQGKQVTVSS	low polyreactivity
QVQLVESGGGLVQAGGSLRLSCAASGLIFDWYAMGWYRQAPGKERELVADISYSGGSTNYADSVKGRFTISRDNAKNTVYLQMNSLKPEDTAVYYCAADDYWTPFGYWGQGTQVTVSS	low polyreactivity
QLQLLESGGGLDQPGGSLRLSSAASGRTFYRYVMGWYRQEPGKERELVAAIRSSGTTTYYADSVKGRFTISRDNAKNTVYIKMNCVIPEDTAVYYCARDSYRGYVYSLDYWGQGTQVTVSS	high polyreactivity
QVQLVESGGGLVQAGGSLRLSCAASGSIFGGYSMGWYRQAPGKEMELVARISSGGSTYYADSVKGRFTISRDNAKNTVYLQMNSLKQEDTAVYYCNAKTYTWWGLYEYWGQGTQVTVSS	high polyreactivity
QVQLVESGGCLFQAGGSLRLSCAASGFIFGTYAIGWYRQAPGKERELVAAISVGRGSTYYADSVKGRFTISRDNAKNTVYLQMNSLKPEDTAVYYCAAVQLYQKHQITYVAHEYWGHGTQVTVSS	low polyreactivity
QVQLVESGGGLVQAGGSLRLSCAASGSTFRFYTMGWYRPAPGKERELVATISRGGSTYADSVKGRFTISRDNAKNTVYLQMYSLKPEDTAVYYCAKRGYSSWPYDYWGQGTQVSVSS	low polyreactivity
QVQLVESGGGLVQAGGSLRLSCAASGSIFQDYAMGWSRQAPGKERELVAVITRGGSKYYADSVKGRFTISRDNAKNTVYLQMNSLKPEDTAVYYCNTRRGRGGKYDYWGHGTQVTVSS	low polyreactivity
QVQLVESGVGLVQAGGSLRLSCAASGRIFYLYAMGWYRQAPGKDSELVAAITWSGGSTTYADSVKVRFTISRDNAKNSVYLQMNSLKPEETAVYYCNADGWIFPSVSPMDYWGQGTQVTVSS	low polyreactivity
QVQLVESGGGLVQAGGSLRLSCAASGIIFVRNAMGWYRKAPGKERELVAAISRSGGSTYYADSVKWRFTISRDNAKNTVYLQMNSLKPEDTAVYYCAAVLRLSSGYDYWGQGTQVTVSS	high polyreactivity
